Assay results: paper PMC7537107 (Journal of neurochemistry, 2019)

B1: V5-tagged GluN2B C-terminal, cytosolic tail (amino acids 839-1484) (domain or fragment, human, UniProt Q13224 839-1484, looked up)
chain: EHLFYWQFRHCFMGVCSGKPGMVFSISRGIYSCIHGVAIEERQSVMNSPTATMNNTHSNILRLLRTAKNMANLSGVNGSPQSALDFIRRESSVYDISEHRRSFTHSDCKSYNNPPCEENLFSDYISEVERTFGNLQLKDSNVYQDHYHHHHRPHSIGSASSIDGLYDCDNPPFTTQSRSISKKPLDIGLPSSKHSQLSDLYGKFSFKSDRYSGHDDLIRSDVSDISTHTVTYGNIEGNAAKRRKQQYKDSLKKRPASAKSRREFDEIELAYRRRPPRSPDHKRYFRDKEGLRDFYLDQFRTKENSPHWEHVDLTDIYKERSDDFKRDSVSGGGPCTNRSHIKHGTGDKHGVVSGVPAPWEKNLTNVEWEDRSGGNFCRSCPSKLHNYSTTVTGQNSGRQACIRCEACKKAGNLYDISEDNSLQELDQPAAPVAVTSNASTTKYPQSPTNSKAQKKNRNKLRRQHSYDTFVDLQKEEAALAPRSVSLKDKGRFMDGSPYAHMFEMSAGESTFANNKSSVPTAGHHHHNNPGGGYMLSKSLYPDRVTQNPFIPTFGDDQCLLHGSKSYFFRQPTVAGASKARPDFRALVTNKPVVSALHGAVPARFQKDICIGNQSNPCVPNNKNPRAFNGSSNGHVYEKLSSIESDV
B2: HA-tagged spinophilin, full length (amino acids 1-817, fragment A) (natural protein)
chain: not shown

Assays:
[1] = target: B2; test: co-IP
[2] = target: B1; test: co-IP

Row | Binder | fold change of co-IP with IBMX/forskolin against vehicle (HA IP) [1] | fold change of co-IP with PKAc overexpressed against without (spinophilin IP) [1] | fold change of co-IP with IBMX/forskolin against vehicle (V5 IP) [2] | fold change of co-IP with PKAc overexpressed against without (GluN2B_(Tail) IP) [2]
1 | B1 | 1.48 ratio to control | 2.14 ratio to control | – | –
2 | B2 | – | – | 3.05 ratio to control | 10.6 ratio to control
